Legend:
Experiment in all cases: EMSA
Details in all cases: EMSA with 5' 32P PCR fragments, MarA 1, 2 or 4 uM, PAGE at 150 V; buffer, salt, pH and temperature not given (cited method)
MarA (Escherichia coli) = target: T1, MarA (Escherichia coli) (UniProt P0ACH5)
T1 sequence: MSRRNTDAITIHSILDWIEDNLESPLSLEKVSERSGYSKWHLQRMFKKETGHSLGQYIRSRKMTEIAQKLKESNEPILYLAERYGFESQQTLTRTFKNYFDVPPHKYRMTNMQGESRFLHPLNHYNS

Rob (Escherichia coli) = target: T2, Rob (Escherichia coli) (UniProt P0ACI0)
T2 sequence: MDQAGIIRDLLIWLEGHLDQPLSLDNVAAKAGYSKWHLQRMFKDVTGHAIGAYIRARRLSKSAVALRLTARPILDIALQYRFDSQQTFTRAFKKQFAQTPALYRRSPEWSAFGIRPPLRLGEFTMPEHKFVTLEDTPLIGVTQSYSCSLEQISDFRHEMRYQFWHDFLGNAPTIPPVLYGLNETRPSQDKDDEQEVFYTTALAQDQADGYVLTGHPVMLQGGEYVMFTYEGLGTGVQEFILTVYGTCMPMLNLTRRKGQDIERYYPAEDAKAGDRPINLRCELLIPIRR

SoxS (Escherichia coli) = target: T3, SoxS (Escherichia coli) (UniProt P0A9E2)
T3 sequence: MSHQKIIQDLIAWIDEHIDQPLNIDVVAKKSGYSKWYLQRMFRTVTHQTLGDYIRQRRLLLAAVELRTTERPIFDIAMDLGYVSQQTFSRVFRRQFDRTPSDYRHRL

| Sequence | binding (MarA (Escherichia coli)) | binding (Rob (Escherichia coli)) | binding (SoxS (Escherichia coli)) |
| --- | --- | --- | --- |
| AATTCATTGGCCAGAGGGTTTGGTTGGGTGAGAATGTGACGGTTTTGCCTGGAACAATTATTGGTAATGGAGTCGTAGTCGGCGCCAATTCTGTTGTTAGAGGTTCTATTCCCGAAAATACTGTCATTGCGGGAGTACCAGCAAAAATCATAAAGAAATACAATCATGAGACCAAATTATGAAGCTTCGGGC / GCCCGAAGCTTCATAATTTGGTCTCATGATTGTATTTCTTTATGATTTTTGCTGGTACTCCCGCAATGACAGTATTTTCGGGAATAGAACCTCTAACAACAGAATTGGCGCCGACTACGACTCCATTACCAATAATTGTTCCAGGCAAAACCGTCACATTCTCACCCAACCAAACCCTCTGGCCAATG [wbbK regulatory region] | no binding | – | – |
| AATTCCATGGTGTACGGTTCCTGCGAGATGGGAAAGTAAAAATCCGCGGCATGATATAGCAATTATCGATAATTAACATCCACACATTTTACGCTACATTTGCGCATTAAAAATTATTTGTTATTTACAAGCGCGGCAAGGGCCGCCAGTCTTCAGCCACAAATTTTGGTTGCGGGCGAAAAAATGCGACAATACATACAATTGCCCGAATAGGTTGAAAAACAGGATTGATATGAAGCTTCGGGC / GCCCGAAGCTTCATATCAATCCTGTTTTTCAACCTATTCGGGCAATTGTATGTATTGTCGCATTTTTTCGCCCGCAACCAAAATTTGTGGCTGAAGACTGGCGGCCCTTGCCGCGCTTGTAAATAACAAATAATTTTTAATGCGCAAATGTAGCGTAAAATGTGTGGATGTTAATTATCGATAATTGCTATATCATGCCGCGGATTTTTACTTTCCCATCTCGCAGGAACCGTACACCATGG [lpxLmut3 regulatory region] | binds | – | – |
| AATTCTGCAACTAAACCGTGGCACAAATGGGCAATTTATCCATCGGTAAAATACTATAAAATAGCTTTAGAAAATTCCCCCTGGAAAGATGACTCTCCACGAGATGCGAAATCAATTATTGAATTTAAAAAAAGATATAAACATCTTTTAGTGCAACATCATTATATCTCAGGAATTATAGCAGGAGTCTGTTATCTTTGCCGAAAATATTACCGTAAATAACATTTAACTGGTTTATTATGAAGCTTCGGGC / GCCCGAAGCTTCATAATAAACCAGTTAAATGTTATTTACGGTAATATTTTCGGCAAAGATAACAGACTCCTGCTATAATTCCTGAGATATAATGATGTTGCACTAAAAGATGTTTATATCTTTTTTTAAATTCAATAATTGATTTCGCATCTCGTGGAGAGTCATCTTTCCAGGGGGAATTTTCTAAAGCTATTTTATAGTATTTTACCGATGGATAAATTGCCCATTTGTGCCACGGTTTAGTTGCAG [rfaY (waaY) regulatory region] | binds | binds | binds |
| AATTCTGCGTAAGCAAGCTGATTAAGAATTGACTGGAATTTGGGTTTCGAGTGTGTTTGTGCTAAACTGGCCCGCCGAATGTATAGTACACTTCGGTTGGATAGGTAATTTGGCGAGATAATACGATGAAGCTTCGGGC / GCCCGAAGCTTCATCGTATTATCTCGCCAAATTACCTATCCAACCGAAGTGTACTATACATTCGGCGGGCCAGTTTAGCACAAACACACTCGAAACCCAAATTCCAGTCAATTCTTAATCAGCTTGCTTACGCAG [lpxCmut regulatory region] | binds more weakly | – | – |
| GCCCGAAGCTTCATAACTGTAACCTTCGAATTATGGAGTCAGAGACAATCTCAGACACGAATGTCTGTAATCATACCATCACATCCGAATCCCTTCAGCCCTTTACATAGAGGTGCAAGGATGCTAATTGCAACAAACTAGTTTGGGTTTTAGCTAGTCCTTCATGGCGGATGTTGGTTTTGCATGTGAATAGTGCG / AATTCGCACTATTCACATGCAAAACCAACATCCGCCATGAAGGACTAGCTAAAACCCAAACTAGTTTGTTGCAATTAGCATCCTTGCACCTCTATGTAAAGGGCTGAAGGGATTCGGATGTGATGGTATGATTACAGACATTCGTGTCTGAGATTGTCTCTGACTCCATAATTCGAAGGTTACAGTTATGAAGCTTCGGGC [waaD regulatory region] | no binding | – | – |
| GCCCGAAGCTTCATAGTAAATAGCTGACTTATGGATGTGCTGGGGATTCTATGTATTTAGCTGTGGCTTTACCATTACTTTTCCCGTTTTTGACTTAAATAGCTTCAGTTTGGTCTGATCTGCCGCTACATCTTCATTTTTTTTGTATTTTTATGCGATTCATTGAAACTCGGCCCG / AATTCGGGCCGAGTTTCAATGAATCGCATAAAAATACAAAAAAAATGAAGATGTAGCGGCAGATCAGACCAAACTGAAGCTATTTAAGTCAAAAACGGGAAAAGTAATGGTAAAGCCACAGCTAAATACATAGAATCCCCAGCACATCCATAAGTCAGCTATTTACTATGAAGCTTCGGGC [kdtA (waaA) regulatory region] | binds | – | – |
| GCCCGAAGCTTCATATCAATCCTGTTTTTCAACCTATTCGGGCAATTGTATGTATTGTCGCATTTTTTCGCCCGCAACCAAAATTTGTGGCTGAAGACTGGGCGAAATTGCCGCGCTTGTAAATAACAAATAATTTTTAATGCGCAAATGTAGCGTAAAATGTGTGGATGTTAATTATCGATAATACATATATCATGCCGCGGATTTTTACTTTCCCATCTCGCAGGAACCGTACACCATGG / AATTCCATGGTGTACGGTTCCTGCGAGATGGGAAAGTAAAAATCCGCGGCATGATATATGTATTATCGATAATTAACATCCACACATTTTACGCTACATTTGCGCATTAAAAATTATTTGTTATTTACAAGCGCGGCAATTTCGCCCAGTCTTCAGCCACAAATTTTGGTTGCGGGCGAAAAAATGCGACAATACATACAATTGCCCGAATAGGTTGAAAAACAGGATTGATATGAAGCTTCGGGC [lpxLmut1 regulatory region] | binds more weakly | – | – |
| GCCCGAAGCTTCATATCAATCCTGTTTTTCAACCTATTCGGGCAATTGTATGTATTGTCGCATTTTTTCGCCCGCAACCAAAATTTGTGGCTGAAGACTGGGCGAAATTGCCGCGCTTGTAAATAACAAATAATTTTTAATGCGCAAATGTAGCGTAAAATGTGTGGATGTTAATTATCGATAATTGCTATATCATGCCGCGGATTTTTACTTTCCCATCTCGCAGGAACCGTACACCATGG / AATTCCATGGTGTACGGTTCCTGCGAGATGGGAAAGTAAAAATCCGCGGCATGATATAGCAATTATCGATAATTAACATCCACACATTTTACGCTACATTTGCGCATTAAAAATTATTTGTTATTTACAAGCGCGGCAATTTCGCCCAGTCTTCAGCCACAAATTTTGGTTGCGGGCGAAAAAATGCGACAATACATACAATTGCCCGAATAGGTTGAAAAACAGGATTGATATGAAGCTTCGGGC [lpxL regulatory region] | binds | binds | binds |
| GCCCGAAGCTTCATATCAATCCTGTTTTTCAACCTATTCGGGCAATTGTATGTATTGTCGCATTTTTTCGCCCGCAACCAAAATTTGTGGCTGAAGACTGGGCGAAATTGCCGCGCTTGTAAATAACAAATAATTTTTAATGCTGTAATGTAGCGTAAAATGTGTGGATGTTAATTATCGATAATTGCTATATCATGCCGCGGATTTTTACTTTCCCATCTCGCAGGAACCGTACACCATGG / AATTCCATGGTGTACGGTTCCTGCGAGATGGGAAAGTAAAAATCCGCGGCATGATATAGCAATTATCGATAATTAACATCCACACATTTTACGCTACATTACAGCATTAAAAATTATTTGTTATTTACAAGCGCGGCAATTTCGCCCAGTCTTCAGCCACAAATTTTGGTTGCGGGCGAAAAAATGCGACAATACATACAATTGCCCGAATAGGTTGAAAAACAGGATTGATATGAAGCTTCGGGC [lpxLmut2 regulatory region] | binds | – | – |
| GCCCGAAGCTTCATCGTATTATCTCGCCAAATTACCTATCCAACCGAAGTGTACTATACATTCGGCGGGCCAGTTTAGCACAAAGAGCCTCGAAACCCAAATTCCAGTCAATTCTTAATCAGCTTGCTTACGCAG / AATTCTGCGTAAGCAAGCTGATTAAGAATTGACTGGAATTTGGGTTTCGAGGCTCTTTGTGCTAAACTGGCCCGCCGAATGTATAGTACACTTCGGTTGGATAGGTAATTTGGCGAGATAATACGATGAAGCTTCGGGC [lpxC regulatory region] | binds | binds | binds |
| GCCCGAAGCTTCATGATGAGCATTCAGATAGTGGTTCACGCGCACGGGTTGCGCACCGCCGGAGTAAGGATTTACTGAGGCTAGCGACGCCATCATAACGAGCAAAAAGACAGATCGTCAAAGGAGAATCGTGAGGAAATGCTGCATTGCTGACATTTACGCCG / AATTCGGCGTAAATGTCAGCAATGCAGCATTTCCTCACGATTCTCCTTTGACGATCTGTCTTTTTGCTCGTTATGATGGCGTCGCTAGCCTCAGTAAATCCTTACTCCGGCGGTGCGCAACCCGTGCGCGTGAACCACTATCTGAATGCTCATCATGAAGCTTCGGGC [pbpGmut regulatory region] | no binding | – | – |
| GCCCGAAGCTTCATGATGAGCATTCAGATAGTGGTTCACGCGCACGGGTTGCGCACCGCCGGAGTAAGGATTTACTGAGGCTAGCGACGCCATCATAACGAGCAAAAAGTGCGATCGTCAAAGGAGAATCGTGAGGAAATGCTGCATTGCTGACATTTACGCCG / AATTCGGCGTAAATGTCAGCAATGCAGCATTTCCTCACGATTCTCCTTTGACGATCGCACTTTTTGCTCGTTATGATGGCGTCGCTAGCCTCAGTAAATCCTTACTCCGGCGGTGCGCAACCCGTGCGCGTGAACCACTATCTGAATGCTCATCATGAAGCTTCGGGC [pbpG regulatory region] | binds | – | – |
